# Assay results reported in the MegaScale stability set (Tsuboyama et al. 2023).
# B1: r16_88_TrROS_Hall (parent)
# chain: EVIELKIKFKTPEQREKLKEIAKKLNAEVVEEKDGEVIIRFKTPEQAERALKEAEKLGAEVEL
# Variants of: B1
# Experiment: folding stability dG (cDNA display proteolysis); higher = more stable
# Settings: PBS, room temperature
row,Variant,folding stability dG [kcal/mol]
1,EVIETKIKFKTPEQREKLKEIAKKLNAEVVEEKDGEVIIRFKTPEQAERALKEAEKLGAEVEL [L5T],4.04
2,DVIELKIKFKTPEQREKLKEIAKKLNAEVVEEKDGEVIIRFKTPEQAERALKEAEKLGAEVEL [E1D],4.2
3,FVIELKIKFKTPEQREKLKEIAKKLNAEVVEEKDGEVIIRFKTPEQAERALKEAEKLGAEVEL [E1F],4.33
4,EVIELKIKFKTPEQREKLKEIAKKLNAEVVEEKDGEVIIRFKTPEQAERALKEAEKLGWEVEL [A59W],4.21
5,EVIELKIKFKTPEQREKLKEIAKKLNAEVVEEKDGEVIIRFKTPEQAERALKEAEKLGPEVEL [A59P],4.55
6,EVIELKIKFKTPEQREKLKEIAKKLNAEVIEEKDGEVIIRFKTPEQAERALKEAEKLGAEVEL [V30I],4.46
7,EVIELKIKFKTPEQREKLKEIAKKLNAEVPEEKDGEVIIRFKTPEQAERALKEAEKLGAEVEL [V30P],4.07
8,EVIELKIKFKTPEQREKLKEDAKKLNAEVVEEKDGEVIIRFKTPEQAERALKEAEKLGAEVEL [I21D],3.4
9,EVIELKIKFKTPEQREKLKESAKKLNAEVVEEKDGEVIIRFKTPEQAERALKEAEKLGAEVEL [I21S],4.17
10,EVIELKIKFKTPEQREKLKEIAKKLNAEVVEEKDGEVIIRFKTPEQDERALKEAEKLGAEVEL [A47D],3.16
11,EVIELKIKFKTPEQREKLKEIAKKLNAEVVEEKDGEVIIRFKTPEQLERALKEAEKLGAEVEL [A47L],4.65
12,EVIELKIKFKTPEQREKLKEIAKKLNAEVVEEKDGEVIIRFKTPEQAERALKEAERLGAEVEL [K56R],4.15
13,EVIELKIKFKTPEQREKLKEIAKKLNAEVVEEKDGEVIIRFKTPEQASRALKEAEKLGAEVEL [E48S],4.39
14,EVIELKIKFKTPEQREKLKEIAKKLNAEVVEEKDGEVIIRFKTPEQAERALKEAEKLGAEKEL [V61K],3.84
15,EVIELKIKFKTPEQREKLKEIAKKLNAEVVEEKDGEVIIRFKTPEQAERALKEAEKLGAETEL [V61T],4.2
16,EVIELKIKFKTPEQREKLKEIAKKLNAEVVEEKDGEVIIRFKTPEQAERALKRAEKLGAEVEL [E53R],4.03
17,EVIELKIKFKTPEQREKLKEIAKKLNAEVVEEKDGEVIIRFKTPEQAERALKMAEKLGAEVEL [E53M],4.39
18,EVIELKIKFKTPEQREKLKEIAKKLNAEVVEEKDGEVIIRFKTPEQAERALKAAEKLGAEVEL [E53A],4.13
19,EVIELKIKFKTPEQREKLQEIAKKLNAEVVEEKDGEVIIRFKTPEQAERALKEAEKLGAEVEL [K19Q],4.3
20,EVIELKIKFKTPEQREKLGEIAKKLNAEVVEEKDGEVIIRFKTPEQAERALKEAEKLGAEVEL [K19G],4.38
21,EVIELKIKFKTPEQREKLKEIAKKLNAEVVEEKDGEVIIRCKTPEQAERALKEAEKLGAEVEL [F41C],4.28

row,Variant,folding stability dG [kcal/mol]
1,EVIELKIKFKTPEQREKLKEIAKKLNAEVVEEKDGEVIIRMKTPEQAERALKEAEKLGAEVEL [F41M],4.14
2,EVIELGIKFKTPEQREKLKEIAKKLNAEVVEEKDGEVIIRFKTPEQAERALKEAEKLGAEVEL [K6G],4.02
3,EVIELKHKFKTPEQREKLKEIAKKLNAEVVEEKDGEVIIRFKTPEQAERALKEAEKLGAEVEL [I7H],3.18
4,EVIELKNKFKTPEQREKLKEIAKKLNAEVVEEKDGEVIIRFKTPEQAERALKEAEKLGAEVEL [I7N],2.98
5,EVIELKIKFKTPEQREKLKEIAKKLNAEVVEEKDGEVIIRFSTPEQAERALKEAEKLGAEVEL [K42S],4.23
6,EVIELKIKFKTPEQREKLKEIAKKLNAEVVEEKDGEVIIRFKTPEQAERALKEAEKLGAQVEL [E60Q],4.2
7,EVIELKIKFKTPEQREKLKEIAKKLNAEVVEEKDGEVIIRFKTPEQAERALKEAEKLGATVEL [E60T],4.4
8,EVIELKIKFKTPEQREKLKEIAKKLNAEVVEEKDGEVIIRFKTPEQAERALKEAEKLGAIVEL [E60I],4.12
9,EVIELKIKRKTPEQREKLKEIAKKLNAEVVEEKDGEVIIRFKTPEQAERALKEAEKLGAEVEL [F9R],2.76
10,EVIELKIKQKTPEQREKLKEIAKKLNAEVVEEKDGEVIIRFKTPEQAERALKEAEKLGAEVEL [F9Q],3.28
11,EVIELKIKFKTPEQREKLKEIAKKLNAEVVENKDGEVIIRFKTPEQAERALKEAEKLGAEVEL [E32N],4.43
12,EVIELKIKFKTPEQREKLKEIAKKLNAEVVEGKDGEVIIRFKTPEQAERALKEAEKLGAEVEL [E32G],4.46
13,EVIELKIKFKTPEQREKLKEIAKKLNAEVVEPKDGEVIIRFKTPEQAERALKEAEKLGAEVEL [E32P],4.54
14,EVIELKIKFKTPEQREKLKEIAKKLNAEVVEAKDGEVIIRFKTPEQAERALKEAEKLGAEVEL [E32A],4.34
15,EVIELKIKFKTPEQREKLKEIAKKLNAEVVEYKDGEVIIRFKTPEQAERALKEAEKLGAEVEL [E32Y],4.65
16,EVIELKIKFKTPEQREKLKEIAKKLNAEVVEEKDGEVIIDFKTPEQAERALKEAEKLGAEVEL [R40D],3.83
17,EVIELKIKFKTPERREKLKEIAKKLNAEVVEEKDGEVIIRFKTPEQAERALKEAEKLGAEVEL [Q14R],4.42
18,EVIELKIKFKTPEQREKLKRIAKKLNAEVVEEKDGEVIIRFKTPEQAERALKEAEKLGAEVEL [E20R],4.59
19,EVIELKIKFKTPEQREKLKIIAKKLNAEVVEEKDGEVIIRFKTPEQAERALKEAEKLGAEVEL [E20I],4.45
20,EVIELKIKFKTPEQREKLKEIAKKLNAEVVEEKDGEVIIRFKTPEQAESALKEAEKLGAEVEL [R49S],4.48
21,EVIELKIKFKTPEQREKLKEIAKKLNAEVVEEKDGEVIIRFKTPVQAERALKEAEKLGAEVEL [E45V],4.24
